Measured values from paper PMC9913352.

Target: untagged human Nit1 isoform 4 (human)
Experiment: SEC; untagged proteins after on-column TEV cleavage, Superdex 200-HR, 50 mM Tris/HCl pH 8.0, 100 mM NaCl, 2 mM MgCl2, 0.3 mL/min; calibrated with marker proteins

untagged human Nit1 isoform 4 (natural protein)
stoichiometry N: 4
